In paper doi:10.1101/2021.05.06.441297 one finds Kd data, which are given here for 1 substance.

This test deals with fluorescently labeled non-covalent analog of peptide 5 (UniProt P46937). The test can be described thus: fluorescence polarisation. Background: Polarisation of emitted light reports the rotation of a fluorescent probe.

The term Kd denotes the concentration at which binding is half-saturated. Read a high Kd as weaker binding.

Chain of UniProt P46937 (P46937 whole entry, looked up, tested part not stated): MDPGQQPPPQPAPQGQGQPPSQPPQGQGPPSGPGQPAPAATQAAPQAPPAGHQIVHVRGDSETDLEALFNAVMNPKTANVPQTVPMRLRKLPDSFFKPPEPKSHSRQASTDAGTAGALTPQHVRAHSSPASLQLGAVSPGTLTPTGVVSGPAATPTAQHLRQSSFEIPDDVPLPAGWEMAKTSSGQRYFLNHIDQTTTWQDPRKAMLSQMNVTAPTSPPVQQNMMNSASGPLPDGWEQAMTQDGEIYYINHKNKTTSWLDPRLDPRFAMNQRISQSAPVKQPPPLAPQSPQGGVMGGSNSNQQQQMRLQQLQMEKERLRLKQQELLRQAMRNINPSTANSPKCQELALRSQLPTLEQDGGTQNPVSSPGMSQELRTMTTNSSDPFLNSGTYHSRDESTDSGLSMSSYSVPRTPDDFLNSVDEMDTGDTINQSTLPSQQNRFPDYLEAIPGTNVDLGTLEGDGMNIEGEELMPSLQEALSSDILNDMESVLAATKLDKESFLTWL

As to “14-3-3σ full length (1-248) (natural protein)”, the equilibrium dissociation constant (Kd) worked out at 106 nM. In other words, the sub-micromolar range.
